The source of these data is patent CN114409788A (WEST CHINA HOSPITAL OF SICHUAN UNIV, dated 2022).

Assay [1] deals with T1, human CD38 Protein (ECD, His Tag) (human, UniProt P28907 43-300).
T1 construct: extracellular domain; Commercial recombinant antigen coated on the ELISA plate at 0.5 ug/ml; also called 未标记抗原; not shown: His tag
T1 sequence (looked up): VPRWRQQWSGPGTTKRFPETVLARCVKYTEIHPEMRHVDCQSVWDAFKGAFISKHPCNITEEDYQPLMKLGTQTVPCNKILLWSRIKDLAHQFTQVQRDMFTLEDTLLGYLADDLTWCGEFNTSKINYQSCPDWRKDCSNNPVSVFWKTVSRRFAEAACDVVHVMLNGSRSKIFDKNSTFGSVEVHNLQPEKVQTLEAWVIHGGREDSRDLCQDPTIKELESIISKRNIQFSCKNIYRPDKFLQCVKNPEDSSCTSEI
In words: ELISA, human CD38 ECD-His coated on plate, detection with HRP goat anti-mouse IgM, OD450. On the technique in general: An ELISA detects its analyte on a solid surface through an enzyme-linked reagent.

For the next assay, the target named is T2, mono-Mac-6细胞表面的CD38 (UniProt P28907 1-300, limits assumed).
T2 construct: whole, on cells; also called CD38 on mono-Mac-6 cells
T2 sequence (looked up): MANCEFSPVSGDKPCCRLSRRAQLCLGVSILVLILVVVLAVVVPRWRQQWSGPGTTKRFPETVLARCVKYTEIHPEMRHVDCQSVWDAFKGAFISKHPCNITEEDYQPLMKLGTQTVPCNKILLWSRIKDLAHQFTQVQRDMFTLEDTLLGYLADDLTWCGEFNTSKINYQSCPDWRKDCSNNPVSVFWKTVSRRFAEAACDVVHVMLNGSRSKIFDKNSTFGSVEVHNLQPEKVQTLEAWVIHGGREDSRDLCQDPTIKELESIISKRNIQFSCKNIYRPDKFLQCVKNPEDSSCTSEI
Briefly: flow cytometry on mono-Mac-6 cells, antibody production supernatant, APC anti-IgM secondary antibody. On the technique in general: Flow cytometry measures light scatter and fluorescence of single cells or particles in a stream.

B1: 单克隆抗体70B5 (抗CD38的单克隆抗体) (antibody, V domains shown)
VH: EVQLQQSGPELVKPGASVKISCKASGYTFTDYYMNWVKQSHGKSLEWIGDINPNNGGTSYNQKFKGKATLTVDKSSSTAYMELRSLTSEDSAVYYCARGYYSNPFDVWGTGTTVTVSS
VL: DIQMTQSPSSLSASLGERVSLTCRASQDIGSSLNWLQQEPDGTIKRLIYATSSLDSGVPKRFSGSRSGSDYSLTISSLESEDFVDYYCLQYASSPLTFGAGTKLELK
notes: also called 70B5抗体
As to B1, the binding result (in assay [1]; with mono-Mac-6细胞表面的CD38) was “binds” in each case.
